# Laboratory results taken from patent publication US11819552B2, “Antibody-drug conjugates targeting uPARAP” (RIGSHOSPITALET, priority 2016, dated 2023).
# Entries after “also recorded” stand apart in the source; their conditions may differ.
# T1: mouse uPARAP (Mus musculus, UniProt Q64449)
# T1 sequence (Q64449 31-1479): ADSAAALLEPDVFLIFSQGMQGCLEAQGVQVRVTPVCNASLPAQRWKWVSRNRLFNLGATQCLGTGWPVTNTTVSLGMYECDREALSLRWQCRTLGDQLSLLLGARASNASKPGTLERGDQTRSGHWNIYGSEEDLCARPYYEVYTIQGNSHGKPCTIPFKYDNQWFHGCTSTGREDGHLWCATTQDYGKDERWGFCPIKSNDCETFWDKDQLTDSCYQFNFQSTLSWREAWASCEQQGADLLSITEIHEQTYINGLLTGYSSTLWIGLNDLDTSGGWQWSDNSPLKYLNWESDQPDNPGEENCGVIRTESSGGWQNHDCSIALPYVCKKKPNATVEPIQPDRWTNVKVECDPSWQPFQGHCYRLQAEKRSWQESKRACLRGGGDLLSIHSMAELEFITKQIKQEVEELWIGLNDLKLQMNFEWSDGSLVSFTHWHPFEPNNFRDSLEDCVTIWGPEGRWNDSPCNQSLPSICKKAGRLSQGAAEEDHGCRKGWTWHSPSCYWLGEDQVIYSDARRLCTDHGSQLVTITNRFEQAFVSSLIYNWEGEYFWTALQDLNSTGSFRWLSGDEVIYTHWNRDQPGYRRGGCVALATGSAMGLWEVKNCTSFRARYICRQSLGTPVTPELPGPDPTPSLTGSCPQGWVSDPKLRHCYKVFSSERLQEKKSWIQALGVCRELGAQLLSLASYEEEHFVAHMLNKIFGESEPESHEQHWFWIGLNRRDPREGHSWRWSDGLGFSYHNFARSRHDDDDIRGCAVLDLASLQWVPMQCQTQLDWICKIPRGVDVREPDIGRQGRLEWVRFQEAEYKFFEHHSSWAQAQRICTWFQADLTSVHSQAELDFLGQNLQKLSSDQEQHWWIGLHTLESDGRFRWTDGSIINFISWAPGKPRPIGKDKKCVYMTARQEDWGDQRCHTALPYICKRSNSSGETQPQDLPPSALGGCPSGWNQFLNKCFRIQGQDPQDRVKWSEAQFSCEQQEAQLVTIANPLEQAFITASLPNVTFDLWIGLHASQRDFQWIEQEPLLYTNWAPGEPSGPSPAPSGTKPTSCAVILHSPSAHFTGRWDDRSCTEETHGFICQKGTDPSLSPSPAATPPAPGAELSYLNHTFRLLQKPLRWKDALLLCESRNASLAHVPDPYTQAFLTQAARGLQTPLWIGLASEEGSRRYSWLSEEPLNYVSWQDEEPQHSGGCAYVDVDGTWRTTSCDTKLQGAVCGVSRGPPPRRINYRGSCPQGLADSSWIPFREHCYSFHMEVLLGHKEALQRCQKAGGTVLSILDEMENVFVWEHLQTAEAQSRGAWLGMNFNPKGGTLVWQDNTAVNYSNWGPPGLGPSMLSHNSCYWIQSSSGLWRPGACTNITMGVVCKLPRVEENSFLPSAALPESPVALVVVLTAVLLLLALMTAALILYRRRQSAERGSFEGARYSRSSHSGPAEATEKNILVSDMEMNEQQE
# T2: soluble truncated uPARAP protein containing the first 3 N-terminal domains of human uPARAP (Homo sapiens, UniProt Q9UBG0)
# T2 construct: a soluble truncated uPARAP protein containing the first 3 N-terminal domains of human uPARAP
# T2 sequence (Q9UBG0 31-365): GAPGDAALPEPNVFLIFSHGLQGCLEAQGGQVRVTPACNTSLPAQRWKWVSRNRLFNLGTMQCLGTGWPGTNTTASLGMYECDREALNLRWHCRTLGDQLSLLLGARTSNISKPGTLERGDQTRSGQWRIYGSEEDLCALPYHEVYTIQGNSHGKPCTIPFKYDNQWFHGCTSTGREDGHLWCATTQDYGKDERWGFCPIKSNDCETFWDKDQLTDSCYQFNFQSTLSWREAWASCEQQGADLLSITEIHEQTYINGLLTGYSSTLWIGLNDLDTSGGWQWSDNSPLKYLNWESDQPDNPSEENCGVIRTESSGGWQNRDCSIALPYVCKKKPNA
# Tests used:
# mouse uPARAP = target: T1, mouse uPARAP; experiment: Antibody reactivity with uPARAP; format: binding; conditions: listed as 2h9
# [1] = target: T2, soluble truncated uPARAP protein containing the first 3 N-terminal domains of human uPARAP; experiment: ELISA analysis of uPARAP-binding of mAbs; conditions: after reduction step of conjugation, or in ADC form
# Procedure: Untreated mAbs (2h9 or aTNP), same mAbs subjected to the reduction procedure of conjugation (see above), or ADCs 2h9-vc-MMAE or aTNP-vc-MMAE, were then employed as a primary antibody, followed by a HRP-conjugated rabbit anti-mouse Ig secondary antibody. Finally an o-phenylenediamine dihydrochloride-containing substrate solution was added, and the color reaction was stopped by adding 1M H2SO4. Plates were read at 492 nm using a plate reader.
molecule,measurement,setting,value
"mAb 2h9: mouse monoclonal IgG1k anti-uPARAP antibody clone 2.h.9: F12, produced by hybridoma cell culture (protein) light: DIQMTQSPASQSASLGESVTITCLASQTIGTWLAWYQQKPGKSPQLLIYAATTLTDGVPSRFSGAGSGTKFSLKISSLQAEDFASYFCQEFFSTPFTFGSGTKLELKRADAAPTVSIFPPSSEQLTSGGASVVCFLNNFYPKDINVKWKIDGGERQNGVLNSWTDQDSKDSTYSMSSTLTLTKDEYERHNSYTCEATHKTSTSPIVKSFNRNEC heavy: QVQLQQPGTELVRPGLSVKLSCKASGYTFTSYWMNWVKQRPGQGLEWIGMIHPSNDEKRINQKFKDKATLTVDKFSSTVYMQVSSPTSEDSAVYYCARGGGDYVGDYALDFWGQGTSVTVSSAKTTPPSVYPLAPGSAAQTNSMVTLGCLVKGYFPEPVTVTWNSGSLSSGVHTFPAVLQSDLYTLSSSVTVPSSTWPSETVTCNVAHPASSTKVDKKIVPRDCGCKPCICTVPEVSSVFIFPPKPKDVLTITLTPKVTCVVVDISKDDPEVQFSWFVDDVEVHTAQTQPREEQFNSTFRSVSELPIMHQDWLNGKEFKCRVNSAAFPAPIEKTISKTKGRPKAPQVYTIPPPKEQMAKDKVSLTCMITDFFPEDITVEWQWNGQPAENYKNTQPIMDTDGSYFIYSKLNVQKSNWEAGNTFTCSVLHEGLHNHHTEKSLSHSPGK",Reactivity with mouse uPARAP,mouse uPARAP,reactive against both human and murine uPARAP; also recorded: reacts with both human and mouse uPARAP
same,Affinity towards uPARAP following conjugation procedure,[1],retained affinity
same,Affinity towards uPARAP following conjugation procedure,[1]; listed as 2h9,negligible loss of affinity
